Laboratory results as given in patent publication US20240343803A1 (SHANDONG SIMCERE BIOPHARMACEUTICAL, published 2024).

T1: human PVRIG-mFc protein (Acro, PVG-H5253) (human, UniProt Q6DKI7 41-171, limits assumed)
T1 construct: extracellular domain; Bought protein; also called PVRIG-ECD-mFc; not shown: mouse Fc tag of the bought protein
T1 sequence (looked up): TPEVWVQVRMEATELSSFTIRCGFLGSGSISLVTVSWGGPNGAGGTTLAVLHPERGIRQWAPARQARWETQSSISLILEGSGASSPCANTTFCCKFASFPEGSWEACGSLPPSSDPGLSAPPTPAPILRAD

T2: human PVRIG-his (AcroBiosystems, Cat NO. PVG-H52H4) (human, UniProt Q6DKI7 41-171, limits assumed)
T2 construct: also called human PVRIG protein
T2 sequence (looked up): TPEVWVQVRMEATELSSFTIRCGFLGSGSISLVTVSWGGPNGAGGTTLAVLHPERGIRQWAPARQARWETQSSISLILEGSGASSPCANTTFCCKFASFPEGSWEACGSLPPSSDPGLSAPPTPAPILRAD

T3: human PVRIG-mFc protein (Acro, PVG-H5253) (human, UniProt Q6DKI7 41-171, limits assumed)
T3 construct: bought protein
T3 sequence (looked up): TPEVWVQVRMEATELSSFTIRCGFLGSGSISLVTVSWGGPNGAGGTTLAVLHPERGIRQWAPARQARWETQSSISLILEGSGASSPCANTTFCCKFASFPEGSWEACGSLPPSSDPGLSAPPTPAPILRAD


Key:
[1] = target: T1, human PVRIG-mFc protein (Acro, …); assay: FACS blocking of PVRIG-mFc binding to CHO-K1-CD112 cells; competitor CD112
How it was run: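 After a further 30 min at 4° C with Zombie violet-stained CHO-K1-CD112 cells, binding was detected with PE goat anti-mouse IgG Fc (1:250) as mean fluorescence intensity on a BD Canto II. IC50 and curve AUC, taken from four-parameter logistic fits in GraphPad Prism, were expressed relative to a reference antibody as percentages.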

[2] = target: T2, human PVRIG-his (AcroBiosystems, Cat …); assay: SPR (BIAcore), antibody captured on Protein A chip, human PVRIG-His analyte
Protocol: Biacore was used to detect the specific binding between anti-PVRIG antibody and human PVRIG protein. Protein A chip was used in the BIAcore assay. The time required for the chip to capture the diluted antibody and saturate the binding antigen to reach Rₘₐₓ (Maximum binding capacity, 50 RU) was measured by manual run. […] The affinity of antibody for antigen was measured by multi-cycle kinetics. In each cycle, the antibodies were injected prior to the injection of gradient concentraions of PVRIG proteins allowing the occurrence of antibody-antigen association and dissociation After each cycle, the Protein A chip was regenerated by Glycine, pH 1.5 (to remove the proteins on the chip). The affinity of antibody for antigen was calculated by BIAcore T200 analysis software.

[3] = target: T3, human PVRIG-mFc protein (Acro, …); assay: FACS competition, PVRIG-mFc binding to CHO-K1-CD112 cells, competitor CD112 on cells
Protocol: A working solution of human PVRIG-mFc protein (Acro, PVG-H5253) prepared with staining buffer, 1 μg/mL (four-fold concentration), was added into a 96-well plate (50 μL PVRIG-mFc working solution per well). […] The diluted antibodies were added to the well containing 50 μL of PVRIG-mFc. The plate was placed on a microplate shaker at 400 rpm for 1 minute to fully mix the antibodies and PVRIG-mFc proteins, and then incubated at 4° C. for 30 minutes. After the incubation, the cell suspension prepared above (100 μL) was added into the wells, gently mixed with the pipette tip and incubated at 4° C. for 30 minutes. After the incubation, the cells were washed twice with staining buffer (200 μL per well) and centrifuged at 350×g for 5 minutes to discard the supernatant. The PE goat anti-mouse IgG Fc antibody (Biolegend, 405337) was diluted 250 times with staining buffer, added into the washed wells (100 μL per well), mixed well, and stained at 4° C. for 30 minutes. After staining, the cells were washed twice with staining buffer, finally resuspended with 200 μL staining buffer and analyzed by flow cytometry (BD, Canto II). The weaker the fluorescence signal, the stronger the ability of the antibodies blocks the binding of CHO-K1 human CD112 cells to the PVRIG-mFc protein. An antibody binding curve was drawn with concentration of antibodies as the abscissa and the corresponding Mean Fluorescence Intensity (MFI) as the ordinate. The IC50 value of the antibodies and the AUC value of the binding curve were calculated by using a Four Parameter Logistic Fit (GraphPadPrism9). The smaller the IC50 value and AUC value, the stronger the ability of the antibodies competes with CHO-K1-CD112 cells to bind to human PVRIG-mFc protein. […] […] The smaller the percentage value, the stronger the blocking ability of the antibodies.

Row | % AUC to COM701-hIgG4 [1] | % AUC to SO35-hIgG1 [1] | % AUC to parental Ab [1] | % IC50 to COM701-hIgG4 [1] | % IC50 to SO35-hIgG1 [1] | % IC50 to parental Ab [1] | Kd [2] | koff [2] | kon [2] | % AUC to COM701-hIgG4 [3] | % AUC to SRF813-hIgG1 [3] | % IC50 to COM701-hIgG4 [3] | % IC50 to SRF813-hIgG1 [3] | Binder
1 | 114% | 65.6% | 100% | 104% | 88.3% | 100% |  |  |  |  |  |  |  | PVRIG-A105 (Fc fusion, Alpaca VHH expressed as VHH-hinge-CH2-CH3 of human IgG1; not shown: human IgG1 hinge-CH2-CH3 (Fc)) EVQLVESGGGLVQAGGSLRLSCAASGRTFDRHTMTWFRQAPGKEREFVATASRIPGDTYYSHSVKGRFTISRDNAKNTVYLQLNNLKPEDTAVYYCAATSAYCSEVDCYEKGSWYDNWGQGIQVTVSS
2 | 112% | 64.6% | 98.4% | 110% | 93.2% | 105% |  |  |  |  |  |  |  | PVRIG-A105-H4 (Fc fusion, VHH-human IgG1 Fc format is stated for the parental VHH antibodies; not restated for the humanized variants; also called A105.VH4; not shown: human IgG1 hinge-CH2-CH3 (Fc)) EVQLVESGGGLVQPGGSLRLSCAASGRTFDRHTMTWFRQAPGKEREFVATASRIPGDTYYSHSVKGRFTISRDNAKNSLYLQMNSLRAEDTAVYYCAATSAYCSEVDCYEKGSWYDNWGQGTMVTVSS
3 | 3530% | 2040% | 3100% | 3060% | 2590% | 2930% |  |  |  |  |  |  |  | PVRIG-A105-H3a (Fc fusion, VHH-human IgG1 Fc format is stated for the parental VHH antibodies; not restated for the humanized variants; also called A105.VH3a; not shown: human IgG1 hinge-CH2-CH3 (Fc)) EVQLVESGGGLVQPGGSLRLSCAASGRTFDRHTMTWFRQAPGKEREFVATASRIPGDTYYVDSVKGRFTISRDNAKNSVYLQMNSLRAEDTAVYYCAATSAYSSEVDSYEKGSWYDNWGQGTMVTVSS
4 | 109% | 62.9% | 95.8% | 109% | 91.9% | 104% |  |  |  |  |  |  |  | PVRIG-A105-H3 (Fc fusion, VHH-human IgG1 Fc format is stated for the parental VHH antibodies; not restated for the humanized variants; also called A105.VH3; not shown: human IgG1 hinge-CH2-CH3 (Fc)) EVQLVESGGGLVQPGGSLRLSCAASGRTFDRHTMTWFRQAPGKEREFVATASRIPGDTYYVDSVKGRFTISRDNAKNSVYLQMNSLRAEDTAVYYCAATSAYCSEVDCYEKGSWYDNWGQGTMVTVSS
5 |  |  |  | 110% | 93.4% | 106% |  |  |  |  |  |  |  | PVRIG-A105-H5 (Fc fusion, VHH-human IgG1 Fc format is stated for the parental VHH antibodies; not restated for the humanized variants; also called A105.VH5; not shown: human IgG1 hinge-CH2-CH3 (Fc)) EVQLVESGGGLVQPGGSLRLSCAASGRTFDRHTMTWFRQAPGKEREFVATASRIPGDTYYVDSVKGRFTISRDNAKNSLYLQMNSLRAEDTAVYYCAATSAYCSEVDCYEKGSWYDNWGQGIQVTVSS
6 |  |  |  |  |  |  | 0.106 nM | 0.00338 s⁻¹ | 3.18e+07 M⁻¹ s⁻¹ | 78% | 58.9% | 62.8% | 64.1% | PVRIG-A11 (Fc fusion, heavy chain antibody VHH-hinge-CH2-CH3, human IgG1 constant part; not shown: human IgG1 hinge-CH2-CH3) QLQLVESGGGLVQPGGSLRLSCAASGFTDDYYAIGWFRQAPGKEREGVSCISGSGGSTNYEDSVKGRFAISRDNAKNMVYLQMNDLKPEDTAVYYCAADPFWSAPCTGHNDRYFDVWGQGTLVTVSS
7 |  |  |  |  |  |  | 0.278 nM | 0.000317 s⁻¹ | 1.14e+06 M⁻¹ s⁻¹ |  |  |  |  | SRF813-hIgG1 (antibody, V domains shown, positive control; human IgG1 format) VH: QVQLVQSGAEVKKPGSSVKVSCKASGGTFSSAAISWVRQAPGQGLEWMGNIIPIVGIANYAQKFQGRVTITADESTSTAYMELSSLRSEDTAVYYCARDTGRGYTRHFWFDPWGQGTLVTVSS VL: DIQMTQSPSSLSASVGDRVTITCRASQSISSYLNWYQQKPGKAPKLLIYAASSLQSGVPSRFSGSGSGTDFTLTISSLQPEDFATYYCQQSDILYTFGGGTKVEIK
8 |  |  |  |  |  |  | 0.319 nM | 0.000651 s⁻¹ | 2.04e+06 M⁻¹ s⁻¹ |  |  |  |  | COM701-hIgG1 (antibody, V domains shown, positive control; human IgG1 format) VH: QVQLVQSGAEVKKPGASVKVSCKASGYTFTDYNINWVRQAPGQGLEWMGYIYPYIGGSGYAQKFQGRVTMTRDTSTSTVYMELSSLRSEDTAVYYCAREDKTARNAMDYWGQGTLVTVSS VL: DIQMTQSPSSLSASVGDRVTITCRVSENIYSNLAWYQQKPGKAPKLLIYEATNLAEGVPSRFSGSGSGTDFTLTISSLQPEDFATYYCQHFWGTPYTFGQGTKLEIK
